8 molecules from EP4714978A1 (Neukio Biotherapeutics (Shangai ) Co., Ltd., dated 2026) can be followed below.

A value given as a limit tells only on which side of the number the result lay.

The term EC50 denotes the concentration at which the effect is half-maximal. The low end stands for higher potency in that assay, the high end for lower potency in that assay. In general, Kd refers to the free concentration of one partner at which half of the binding sites on the other are occupied at equilibrium, for simple one-to-one binding. A high value points to lower affinity. One may read the koff as a measure of how fast the partners let go of each other. A low value points to a long-lived complex. In general, kon refers to the rate constant with which the complex forms. Low values mean slow association, high ones fast association.

Experiment [1] deals with T1, DLL3 on the surface of DLL3-positive cell lines SHP77 and NCI-H82 (UniProt Q9NYJ7 27-618, limits assumed).
T1 construct: whole, on cells; The cell line of each number is named under assay
T1 sequence (looked up): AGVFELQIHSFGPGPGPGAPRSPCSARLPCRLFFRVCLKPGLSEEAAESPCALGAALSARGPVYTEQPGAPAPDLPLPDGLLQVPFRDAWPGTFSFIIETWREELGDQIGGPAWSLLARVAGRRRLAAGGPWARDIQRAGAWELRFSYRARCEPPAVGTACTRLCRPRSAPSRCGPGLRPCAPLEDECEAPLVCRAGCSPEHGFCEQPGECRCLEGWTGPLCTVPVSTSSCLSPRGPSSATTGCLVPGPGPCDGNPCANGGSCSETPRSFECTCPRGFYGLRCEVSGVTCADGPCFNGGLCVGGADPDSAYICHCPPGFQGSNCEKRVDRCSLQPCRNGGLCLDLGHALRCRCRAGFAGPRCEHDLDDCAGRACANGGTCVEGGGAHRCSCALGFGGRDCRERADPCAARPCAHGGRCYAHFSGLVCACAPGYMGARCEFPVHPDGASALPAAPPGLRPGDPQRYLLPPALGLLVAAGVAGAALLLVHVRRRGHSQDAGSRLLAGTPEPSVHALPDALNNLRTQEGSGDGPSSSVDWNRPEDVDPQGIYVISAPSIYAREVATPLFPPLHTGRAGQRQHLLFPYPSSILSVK
The experiment in a line: flow cytometry on SHP77 cells. In general terms: In flow cytometry, cells or beads pass a laser one at a time.

In experiment [2] the target is T1, DLL3 on the surface of DLL3-positive …. In words: flow cytometry on NCI-H82 cells.
Experiment [3] addresses T2, human DLL3 protein (human, UniProt Q9NYJ7 27-492, limits assumed).
T2 construct: Soluble human DLL3 protein used in BLI; also called Delta-like protein 3
T2 sequence (looked up): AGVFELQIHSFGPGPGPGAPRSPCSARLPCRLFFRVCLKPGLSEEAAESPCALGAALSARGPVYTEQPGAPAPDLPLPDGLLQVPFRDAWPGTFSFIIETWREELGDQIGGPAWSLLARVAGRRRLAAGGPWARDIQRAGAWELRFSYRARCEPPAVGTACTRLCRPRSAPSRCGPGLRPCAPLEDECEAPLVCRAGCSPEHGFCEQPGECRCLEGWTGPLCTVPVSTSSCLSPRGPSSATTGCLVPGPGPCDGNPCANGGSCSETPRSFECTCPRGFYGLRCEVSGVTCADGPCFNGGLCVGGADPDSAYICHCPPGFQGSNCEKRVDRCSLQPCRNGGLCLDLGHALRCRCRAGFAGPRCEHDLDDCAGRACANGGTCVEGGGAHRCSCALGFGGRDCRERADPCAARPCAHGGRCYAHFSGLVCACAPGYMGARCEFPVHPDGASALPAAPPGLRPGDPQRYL
The experiment in a line: BLI, scFv-Fc against human DLL3 protein. On the technique in general: BLI is a label-free optical method that tracks binding on a fibre tip over time.

The target in experiment [4] is T2, human DLL3 protein. In words: BLI, scFv-Fc against human DLL3 protein; koff below the instrument detection limit.

B1: Ab.79 scFv-human IgG Fc (Fc fusion)
chain: DVVMTQSPLSLPVTLGQPASISCRSSQSLVYNDGNTYLTWFQQWPGQSPRRLIYKVSNRDSGVPDRFSGSGSGTDFTLKISRVEAEDIGVYHCMQGTHWPYTFGQGTKLEIKGGGGSGGGGSGGGGSQVQVQESGPGLVKSSETLSLTCTVSGGSFRSYYWSWIRQPPGKGLDYIGYMYYSGTTNYNPSLTNRVSISVDTSKNQFSLKLNSVTAADTAVYYCAREGTFDIWGQGTVVTVSS
notes: Tested as scFv-human IgG Fc; not shown: human IgG Fc
B1 displayed a concentration giving a half-maximal response (EC50) in experiment [1] of 0.073 µg/mL. Further, the response in experiment [2] was half-maximal at 0.064 µg/mL (EC50). In the experiment with human DLL3 protein [3], this molecule registered a dissociation constant Kd of 0.487 nM, an off-rate constant (koff) of 0.000186 s⁻¹ and a kon of 382000 M⁻¹ s⁻¹.

B2: Ab.73 scFv-human IgG Fc (Fc fusion)
chain: DVVMTQSPLSLPVTLGQPASISCRSSQSLGYSDGDTYLIWFLQRPGQSPRRLIYKVSNRDSGVPDRFSGSGSGTDFTLKISRVEAEDVGVYYCMQGTHWPYTFGQGTKLEIKGGGGSGGGGSGGGGSQVQVQESGPGLVKPSETLSLTCTVSTGSFSSHYWSWIRQPPGKSLEYIGYIYYTGTTNYNPSLKSRVTISVDTSKNQFSLNVNSVTAADTAVYYCAREGTFDIWGQGTMVTVSS
notes: as for B1
For B2, in experiment [1], the response was half-maximal at 0.077 µg/mL (EC50). The molecule also gave a 50% effective concentration (EC50) in experiment [2] of 0.042 µg/mL. In the experiment with human DLL3 protein [3], the Kd was less than 0.005 nM and the on-rate constant (kon) came to 193000 M⁻¹ s⁻¹. In the experiment with human DLL3 protein [4], this molecule showed a koff of less than 1e-06 s⁻¹.

B3: AMG757 (anti-DLL3 scFv from Amgen's patent, positive control) scFv-human IgG Fc (Fc fusion)
chain: EIVLTQSPGTLSLSPGERVTLSCRASQRVNNNYLAWYQQRPGQAPRLLIYGASSRATGIPDRFSGSGSGTDFTLTISRLEPEDFAVYYCQQYDRSPLTFGCGTKLEIKGGGGSGGGGSGGGGSQVQLQESGPGLVKPSETLSLTCTVSGGSISSYYWSWIRQPPGKCLEWIGYVYYSGTTNYNPSLKSRVTISVDTSKNQFSLKLSSVTAADTAVYYCASIAVTGFYFDYWGQGTLVTVSS
notes: not shown: human IgG Fc
As for B3, the EC50 in experiment [1] worked out at 0.089 µg/mL. In experiment [2], the EC50 was 0.082 µg/mL. In addition, in the experiment with human DLL3 protein [3], binding was characterised by a dissociation constant (Kd) of 0.164 nM, the koff came to 3.03e-05 s⁻¹ and the kon is 185000 M⁻¹ s⁻¹.

B4: Ab.55 scFv-human IgG Fc (Fc fusion)
chain: EVVMTQSPLSLPVTLGQPASVSCRSSQSLLYSDGNTYLIWFQQRPGQSPRRLLYKLSTRDSGVPDRFSGSGSGTDFTLKISRVEAEDVGIYYCMQVTHWPYTFGQGTKLEIKGGGGSGGGGSGGGGSQVQLRESGPGLVKPSETLSLTCTVSGDSLKNSYWGWIRQPPGKGLEWIGYIYYSGTSSYNPSLESRVTFSADTSKNQFSLKLSSVTAADTAVYYCSREGSFDVWGRGTLVTVSS
notes: as for B1
For the molecule B4, the EC50 in experiment [1] was found to be 0.11 µg/mL. In experiment [2], this molecule yielded an EC50 of 0.15 µg/mL. In the experiment with human DLL3 protein [3], this molecule had a dissociation constant (Kd) of 0.197 nM, a koff of 6.31e-05 s⁻¹ and a kon of 320000 M⁻¹ s⁻¹.

B5: Ab.63 scFv-human IgG Fc (Fc fusion)
chain: QIVLTQSPGTLSLSPGERATLSCRASQSVTRGYLAWYQQKPGQAPRLLFYGASNRATDIPDRFSGSGSGTDFTLIISRLEPEDFAVYYCQQYGISPLTFGGGTKVEIKGGGGSGGGGSGGGGSQVQLHESGPGLVKPSETLSLTCTVSGASISSYYWSWIRQPPGKGLEWIGYIYYSGTTNFNPSLKSRVTISVDTSKNQFSLRLSSVTTADTAVYYCANLALTGFHFDYWGQGTLVTVSS
notes: as for B1
Molecule B5 gave an EC50 in experiment [1] of 0.011 µg/mL. In experiment [2], this molecule gave an EC50 of 0.012 µg/mL. Moreover, in the experiment with human DLL3 protein [3], the Kd came to 1.41 nM, the koff was 0.000597 s⁻¹ and the kon amounted to 424000 M⁻¹ s⁻¹.

B6: Ab.67 scFv-human IgG Fc (Fc fusion)
chain: DVVVTQSPLSLPVTLGQPASISCRSSQSLVYSDGNTYLNWFQQRPGQSPRRLVYQVSNRDSGVPDRFSGSGSGTDFTLKISGMEAEDAGVYYCMQGTHWPHTFGQGTKLEIKGGGGSGGGGSGGGGSEVHLVESGGGLVQPGGSLKLSCAASGFIFSGSSMHWVRQASGKGLEWIGRIRNKANNYATSYGASVQGRFTMSRDDSKNTAYLQMNSLKAEDTAVYYCTYLSGEFWGQGTLVTVSS
notes: as for B1
In turn, B6 came in with a concentration giving a half-maximal response (EC50) in experiment [1] of 0.14 µg/mL. Moreover, in experiment [2], the EC50 came to 0.11 µg/mL. In the experiment with human DLL3 protein [3], this molecule displayed a Kd of 0.34 nM, an off-rate constant (koff) of 0.000182 s⁻¹ and a kon of 534000 M⁻¹ s⁻¹.

B7: Ab.71 scFv-human IgG Fc (Fc fusion)
chain: DIGMTQSPDSLAVSLGERATINCKSSQNVLPNSNKKHYLSWYQQKPGQPPKLLIYLASTRASGVPDRFSGSGSGTDFTLTISSLQAEDVAVYYCQQYYSSPPEWTFGQGTKVEIKGGGGSGGGGSGGGGSQVQLVESGGGVVQPGRSLRLSCVASGFTFSNCGMHWVRQAPGKGLEWVAIIWYDGNIKYYGDSVKGRFTISRDNSKNTLYLQMNSLRVEDTAVYYCGRHDYGGNSFDYWGQGTLVTVSS
notes: as for B1
The molecule B7 returned a half-maximal effective concentration (EC50) in experiment [1] of 0.039 µg/mL. For the same molecule, the concentration for a half-maximal effect (EC50) in experiment [2] was 0.027 µg/mL. Moreover, in the experiment with human DLL3 protein [3], the Kd was 0.299 nM, the koff is 0.000177 s⁻¹ and the kon came to 591000 M⁻¹ s⁻¹.

B8: Ab.76 scFv-human IgG Fc (Fc fusion)
chain: EIVMTQSPATLSVSPGERATLSCRASQSVSSNLAWYRQKPGQAPRLFIYGAYTRATDIPARFSGSGSGTEFTLTISSLQSEDFAVYYCQQYNNWPFTFGPGTKVDIKGGGGSGGGGSGGGGSEVQMVESGGVLVQPGMSLRLSCAASGFTFDDYAMHWVRQPPGKGLEWVSVISWNSGSIGYADSVKGRFTISRDNAKNSLYLQMNSLRAEDTAFYYCAKDLEGGVMDFDYWGQGTLVTVSS
notes: not shown: human IgG Fc
With B8, in experiment [1], a half-maximal effect (EC50) was put at 2.6 µg/mL. Moreover, the midpoint of the response in experiment [2], the EC50, lay at 0.38 µg/mL. Further, in the experiment with human DLL3 protein [3], the Kd amounted to 1.22 nM, the koff is 0.000288 s⁻¹ and the kon was 236000 M⁻¹ s⁻¹.
